B1: Hairpin Ribozyme (parent)
chain: GUCCUCUUUCACGUGCGCGUGAAAGAGAGAAGUGAACCAGAGAAACACACGUUGUGGUAUAUUACCUGGUA

Variants of B1 are the subject of the series. The series is described as follows: self-cleavage, relative activity (ratio to wild type); higher = more cleavage; co-transcriptional.
With G29C G34A, the self-cleavage turned out to be 0.158.
For the variant G29C G34U, the self-cleavage came out at 0.0954.
On to A30C C48A, for which the self-cleavage amounted to 0.103.
The value for A28G A36U was 0.7; that for A28U G34A was 0.873; that for G29C C38A was 0.174.
In the case of A28U U63G it was 0.105.
The value for A28C A45C was 0.0427.
A28G G57U: the self-cleavage is 0.36.
With A28G G57A, the self-cleavage was found to be 0.19.
For the variant G27U A30C, the self-cleavage was determined as 0.1.
In the case of A30C U58C, the self-cleavage is 0.158.
On to G29C U52C, for which the self-cleavage turned out to be 0.163.
In the case of A28U U53G it was 0.432; in that of G27U U60G, 0.0793.
Take A28G C46G: the self-cleavage came to 0.134.
G29C U58G: the self-cleavage stood at 0.077.
For G29C U58A, the self-cleavage came out at 0.213.
In the case of G27U U53G it was 0.23; in that of G29U U62G, 0.0909; in that of A30C C50G, 0.142.
Regarding G27U C48G, the self-cleavage worked out at 0.137.
In the case of A28U U52A it was 0.423; in that of A28U U52C, 0.768; in that of A28C G69A, 0.168.
In the case of A28C G69C it was 0.262; in that of G29U A35U, 0.117.
For G27U C46U, the self-cleavage was found to be 0.12.
The value for A30G A39U was 0.138; that for G27U A49U was 0.141.
On to A28U A31G, for which the self-cleavage is 0.325.
In the case of A28G A64G it was 0.425.
In the case of A28G A49C it was 0.208; in that of A28U G29U, 0.0995.
A28U G29C: the self-cleavage was 0.0715.
In the case of A30C A43G it was 0; in that of G29U U33A, 0.169; in that of G29U U33C, 0.165.
As to A28C U58G, the self-cleavage was 0.151.
The value for A28C U58A was 0.401; that for G29C A44G was 0.243.
In the case of A28G C37A it was 0.504; in that of A28G C37G, 0.36.
In the case of A28C A61C it was 0.122; in that of A28U A36C, 0.286.
Consider G29U C48G, for which the self-cleavage was found to be 0.096.
As for A30G A49C, the self-cleavage amounted to 0.0806.
In the case of G27U G56C it was 0.149; in that of G29U A43U, 0.215; in that of G29C C50A, 0.167.
The value for G29A A59U was 0.162; that for A28C C37A was 0.166; that for A30G A31C was 0.111.
As for A30G A31U, the self-cleavage came out at 0.125.
In the case of A30G it was 0.153; in that of A30C, 0.183; in that of G29U U67A, 0.0852.
In the case of G29U U67G, the self-cleavage was 0.132.
In the case of G29A G32C it was 0.106.
In the case of A28G G29C, the self-cleavage stood at 0.12.
Consider A30C G68C, for which the self-cleavage came out at 0.172.
On to A30C G68U, for which the self-cleavage stood at 0.141.
The value for A28G A61G was 0.279; that for A28U A49C was 0.18; that for A28G U67A was 0.31.
As to G29C A71C, the self-cleavage came to 0.179.
In the case of G29C A71G it was 0.206; in that of G27U U55C, 0.113.
For G27U U55G, the self-cleavage stood at 0.224.
As to A30C A41U, the self-cleavage stood at 0.364.
The value for A28G U58A was 0.653.
Consider A28C A41C, for which the self-cleavage worked out at 0.625.
With A28U G32C, the self-cleavage is 0.175.
In the case of A28U G32A it was 0.234; in that of A28G U60G, 0.97.
In the case of A28G U60C it was 0.795; in that of A30G A47C, 0.152.
Consider A30G A47G, for which the self-cleavage is 0.0575.
In the case of G27U G51C it was 0.158.
As to G29U G57C, the self-cleavage came to 0.108.
In the case of G29U G57U, the self-cleavage worked out at 0.149.
For the variant A30G A44G, the self-cleavage turned out to be 0.108.
The value for A30G A44C was 0.169.
For the variant G29A G57A, the self-cleavage is 0.141.
The value for G29A G57U was 0.0366.
As for G29C U55C, the self-cleavage is 0.127.
The value for A28U C46U was 0.046; that for A28U C46G was 0.109.
The value for G29U A61U was 0.0881; that for G29U U63A was 0.146; that for A30C A31G was 0.141.
Turning to A30C A31C, the self-cleavage worked out at 0.159.
On to G29A A39G, for which the self-cleavage worked out at 0.128.
In the case of G29A A39C it was 0.108; in that of G29U A71U, 0.185.
The value for G29U A71G was 0.171; that for G29A A44U was 0.226.
As for G27U A35G, the self-cleavage is 0.228.
For the variant G27U U33A, the self-cleavage was 0.121.
With G27U U33C, the self-cleavage was 0.109.
For the variant A28G C38A, the self-cleavage worked out at 0.168.
As for A28G C38U, the self-cleavage was 0.547.
The value for A28G C38G was 0.169; that for G29C C46G was 0.0799; that for A28U C38U was 0.343.
In the case of G29A U70C it was 0.171.
Consider G29A U70A, for which the self-cleavage came to 0.0755.
In the case of G29A U70G it was 0.182; in that of A28U G40A, 0.175; in that of G29A C50U, 0.178.
On to A28U A71U, for which the self-cleavage turned out to be 0.371.
For A28U A71C, the self-cleavage was 1.1.
On to A28G A44U, for which the self-cleavage was found to be 0.142.
In the case of G29A U55C it was 0.163.
Turning to A28U U58G, the self-cleavage was determined as 0.416.
In the case of A28G G54A, the self-cleavage stood at 0.646.
For the variant A28U G57U, the self-cleavage stood at 0.235.
In the case of G29U C65A it was 0.139; in that of A28C A47U, 0.0267; in that of A28G G32U, 0.0347.
For A28G G32A, the self-cleavage was determined as 0.236.
The value for A30C U52G was 0.113.
In the case of A28U U60C it was 0.871; in that of A30C U60A, 0.12; in that of A28C A43G, 0.129.
In the case of G29U C46G it was 0.182; in that of G29A A43C, 0.215.
Regarding G29A C38A, the self-cleavage was found to be 0.108.
A28G A39G: the self-cleavage stood at 0.357.
In the case of G27U A43U it was 0.106; in that of A28C C65G, 0.229; in that of A28G G42A, 0.21.
The value for A28U A30U was 0.136.
In the case of A28C A35G it was 0.445; in that of A28C A35C, 0.864; in that of A28C A35U, 0.295.
For the variant G29C A31C, the self-cleavage amounted to 0.17.
The value for G29A A31C was 0.129; that for G29U G51C was 0.167; that for G29U U52A was 0.124.
Take A28U C50G: the self-cleavage was determined as 0.173.
In the case of A28U C50A it was 0.213; in that of G27C U70C, 0.132; in that of G27C U70A, 0.319.
Consider G27U U62C, for which the self-cleavage worked out at 0.191.
Turning to G27C U63C, the self-cleavage is 0.222.
In the case of G27C U63A it was 0.174; in that of A28C G54U, 0.262; in that of A28G A45U, 0.201.
With A28U U33G, the self-cleavage was determined as 0.104.
The value for A30C C66G was 0.248.
Take G29U A49U: the self-cleavage was found to be 0.0858.
The value for A28U A41C was 1.13.
For A30C C65G, the self-cleavage turned out to be 0.166.
In the case of A30C A35C it was 0.181; in that of A28U A43G, 0.0987.
On to A28C U67C, for which the self-cleavage worked out at 0.146.
Consider G27U A71G, for which the self-cleavage amounted to 0.261.
As to G27U A71U, the self-cleavage came to 0.166.
For G27U A45G, the self-cleavage was found to be 0.131.
G27U A45U: the self-cleavage worked out at 0.0868.
On to G27U A45C, for which the self-cleavage is 0.0886.
The value for G29C A59U was 0.207.
In the case of A28C A44C it was 0.134; in that of A28C A44G, 0.0991; in that of G29C G69A, 0.0986.
Consider G29C G69U, for which the self-cleavage is 0.119.

Source of the values: the RNAGym collection of RNA variant scans (doi:10.7554/elife.80360).
